Measurements: patent US20030138859A1, “Assay kits and methods for immune complex-mediate activation involving shed antigens” (BioCrystal, Ltd., priority 1999, published 2003)

Columns and labels:
[1] = test system: mucin-secreting human tumor cell line T-47D; test: In vitro tumor cell invasion assay through matrix (Boyden chamber) with stromal cells; type: cell-based; details: anti-sTn IgG1 mAb
Description: To illustrate this embodiment, granulocytes (polymorphonuclear cells) were harvested by positive selection from peripheral blood, and macrophages were harvested by peritoneal wash, from C3H-SCID beige mice in order to avoid contaminating mouse NK cells, natural Abs, or any immune recognition by mouse T or B lymphocytes. In this in vitro tumor cell invasion assay, used were mucin-secreting human tumor cell line T-47D, a Boyden chamber, and a commercially available basement membrane matrix preparation (“matrix”) which solidifies into a semisolid matrix. In this assay, tested was the ability of tumor cells (2×10^4 cells) to migrate through the matrix (layered into a 6.5 mm well insert containing a polycarbonate membrane having a 3.0 μm pore size) in the following conditions: matrix alone; matrix containing stromal cells (2×10^5 cells, granulocytes and macrophages combined); matrix in the presence of anti-shed tumor antigen antibody (anti-sTn mAb; IgG1; 0.06 μg); matrix containing stromal cells in the presence of anti-sTn mAb (0.06 μg); and matrix containing stromal cells in the presence of Fab fragments (0.06 μg) of the anti-sTn mAb. […] Invasion was measured by counting the number of tumor cells per well which migrated to the bottom of the chamber after 48 to 72 hours. […]

[2] = target: FcγRI on type 1 or type 2 endothelial cells; test: cell-based or functional assay
[3] = target: murine FcγRI on murine cells (Met 129, B16F10, granulocytes, peritoneal macrophages, MH-S macrophages) (mouse) (UniProt P26151); test: cell-based or functional assay
Chain of murine FcγRI on murine cells (Met 129, B16F10, granulocytes, peritoneal macrophages, MH-S macrophages) (mouse) (P26151 25-404): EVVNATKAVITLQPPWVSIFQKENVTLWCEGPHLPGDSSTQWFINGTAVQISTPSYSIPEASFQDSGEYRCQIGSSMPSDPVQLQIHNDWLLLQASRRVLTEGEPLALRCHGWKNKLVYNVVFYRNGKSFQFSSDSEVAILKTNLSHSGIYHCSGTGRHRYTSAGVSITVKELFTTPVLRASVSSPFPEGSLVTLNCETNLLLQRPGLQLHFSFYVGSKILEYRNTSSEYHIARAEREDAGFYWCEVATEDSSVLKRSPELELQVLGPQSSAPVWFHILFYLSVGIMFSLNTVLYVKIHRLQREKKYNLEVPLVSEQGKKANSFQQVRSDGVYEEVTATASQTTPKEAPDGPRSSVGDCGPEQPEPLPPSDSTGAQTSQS

Q: With `[N-]=[N+]=[N-]` [azide, sodium azide] as the molecule, how does the “reduction in tumor cell migration compared to assay in absence of the substance” value ([1]; 0.001% per well) read?
A: ~5 fold

Q: For “immune complexes comprising bovine submaxillary mucin and anti-sTn mAb (clone B72.3, IgG1)”, which VEGF production by type 1 endothelial cells (ELISA, 2 h) [2] is on record?
A: > 5 pg/mL

Q: And the IFN-γ secreted, macrophages + IC (ELISA) [3]?
A: 5.3 pg/mL

Q: And the IFN-γ secreted, macrophages + tumor cells + IC (ELISA) [3]?
A: 4 pg/mL

Q: And the IFN-γ secreted, macrophages + tumor cells + neutrophils + IC (ELISA) [3]?
A: 4.1 pg/mL

Q: And the IL-1β secreted, macrophages + IC (ELISA) [3]?
A: 2.5 pg/mL

Q: What about the IL-1β secreted, macrophages + tumor cells + neutrophils + IC (ELISA) [3] of the same molecule?
A: 22.8 pg/mL

Q: What about the IL-4 secreted, macrophages + IC (ELISA) [3] of the same molecule?
A: 1.5 pg/mL

Q: What about the IL-4 secreted, macrophages + tumor cells + IC (ELISA) [3] of the same molecule?
A: 1.3 pg/mL

Q: And the IL-4 secreted, macrophages + tumor cells + neutrophils + IC (ELISA) [3]?
A: 0.6 pg/mL

Q: What about the IL-6 secreted, macrophages + IC (ELISA) [3] of the same molecule?
A: 104 pg/mL

Q: And the IL-6 secreted, macrophages + tumor cells + IC (ELISA) [3]?
A: 400 pg/mL

Q: Which “reduction in tumor cell migration compared to assay in absence of the substance” value ([1]; 0.1 μg/well) does the source give for “methoxysuccinyl-alanyl-alanyl-prolyl-valine-chloromethylketone [MAAPVC]” here?
A: ~5 fold
